Reference: patent US20230355533A1, “BIODEGRADABLE POLYCAPROLACTONE CAPSULE FOR ANTIBODY RELEASE AND DEGRADATION” (University Of Cincinnati, priority 2022, published 2023)

Tests used:
[1] = Bev drug release kinetics model (cylindrical reservoir); settings: calculated from Stokes-Einstein diffusion coefficient and hindrance factor
From the text: The equation used to model the release profile is
where Mt is the mass released at time t, M∞, is the mass loaded in the implant, Ri is the inner radius of the implant, Ro is outer radius of the implant, De is the effective diffusivity, K is the partition coefficient, and L is the length of the implant. This equation models Fick's law of diffusion of molecules from the lumen of a cylindrical implant through a membrane wall. Ro, Ri, and L can all be measured from the implants, but De and K must be determined experimentally or calculated from other parameters that can be determined experimentally to create this model. K may be determined experimentally, as described herein. To find De, permeability, Stokes-Einstein diffusion, hindrance factor for diffusion, hindrance factor, and the restrictive factor all were determined experimentally or calculated.
The permeability of Bev across the PCL membrane can be described by […]
where kB is the Boltzmann constant, T is the temperature in Kelvin, η is the viscosity of water at 25° C., and r is the hydrodynamic radius of Bev. The overall hindrance factor for diffusion, H, is expressed as: […]
where λ is the ratio of permeant radius to pore radius and Kt, the hinderance factor, is calculated by: […]
The last value that needs to be determined for Equation 3 is effective diffusivity (De). De can be determined from the equation: […]

[2] = Bev partition coefficient in PCL membrane; assay type: physicochemical; settings: equilibrium solution of 20 mg/mL
Experimental: The partition coefficient K is required for the release kinetics model equation. […] The membranes were soaked in 200 μL of PBS for 48 h. After 48 h the membranes were blotted with a Kimwipe to remove surface liquid and then weighed to determine the wet mass of the membrane. The membranes were then dried overnight in a chemical hood. The dry membranes were then placed in 200 μL of an equilibrium Bev solution for 72 h to allow the membranes to absorb the Bev from the solution. After 72 h the membranes were removed from the equilibrium, blotted, and placed in 200 μL of fresh PBS to extract Bev for 48 h. This extraction process was repeated until the amount extracted was 10% of the first extraction. The remaining equilibrium solution and all extraction solutions were analyzed using UV-Vis to determine the Bev concentration. The partition coefficient was then determined using the equation below.
where Me is the total mass extracted, W is the wet mass of the membrane, Meq is the amount of Bev left in the equilibrium solution, V is the volume of water left in the equilibrium solution, and ρ is the density of the solution.

[3] = Bev permeability across PCL membrane, vertical permeability column; assay type: physicochemical; settings: 0.05 PEG PCL membrane, donor 50 mg/mL, area 0.78 cm^2
Experimental: The permeability experiments were conducted using a vertical permeability column. The donor side was filled with 200 μL of 50 mg/mL Bev solution and the receiver side was filled with 5 mL of PBS. […] The membranes were soaked in DI water for 24 h to remove the PEG and then placed in the column without drying. Once the membrane was securely placed between the donor and receiver sections, 200 μL of the donor solution was loaded and then the opening was sealed off to reduce evaporation altering the concentration of the donor and receiver solutions. 500 μL of the receiver and 10 μL of the donor solution were removed every 72 h to check the concentration using UV-Vis. The removed solutions were replaced by fresh PBS for the receiver solution and the donor was replaced by fresh donor solution or completely replaced depending on the remaining concentration.
After 12 days, the mass of Bev that permeated the membrane was plotted against time to get dQ/dt in the equation: […]
where Ci is the initial concentration (donor solution concentration), P is the permeability coefficient, and A is the area of the exposed membrane.

TNF-α stimulated HUVECs = assay: IL-6 ELISA assay; assay type: cell-based, Human; settings: Dex 33 μM, 24 h pretreatment, then 20 ng/mL TNF-α 24 h
Experimental: Human primary umbilical vein endothelial cells (HUVECs) were maintained in EBMTM-2 Basal Medium and EGMTM-2 SingleQuots™ Supplements (Lonza, Switzerland). HUVECs were grown in the cell incubator containing 5% CO2 at 37° C. When the cells were grown to 90% confluence, they were inoculated in 24-well plates. Briefly, 0.4 mL of HUVECs suspensions (8×104 HUVECs per well) were seeded in 24-well plates and incubated at 37° C, 5% CO2 for 24 h. […] After 24 h, all the conditions except the medium only were incubated with 20 ng/mL TNF-α for 24 h. […] At the end of experiments, the cell medium was collected and centrifuged at 2,000×g for 10 min to remove the particulate/debris materials. Then, supernatant was collected and stored at −20° C. until used. Each sample was pre-diluted using a standard dilution buffer to keep the sample concentrations within the range of standard curve. The concentration of pro-inflammatory cytokine (IL-6) in the cell culture supernatant was analyzed by the ELISA assay according to the manufacturer's recommendation (Invitrogen® human IL-6 ELISA kit). All tests were done in triplicate.

Substance	effective diffusion coefficient De [1]	partition coefficient K [2]	Bev permeated across the membrane [3]	IL-6 level in cell culture medium compared to TNF-α stimulated HUVECs (condition 2) (TNF-α stimulated HUVECs)
Bevacizumab	5.59 × 10^−6 cm^2/day	0.515	42.5 µg/day	
Dexamethasone sodium phosphate [free Dex]				not significantly decreased
